Measurements reported in US10010616B2, “Immunogenic compositions and reagents for preparing” (PURDUE RESEARCH FOUNDATION, priority 2011, dated 2018).

Experiments:
[1] = Adsorption isotherm on aluminum hydroxide adjuvant; type: binding; conditions: Rehydragel HPA aluminum hydroxide 20-26 μg/mL, 4° C., micro BCA assay
Description: The phosphorus containing groups described herein bind adjuvants. Compounds containing a phosphorus containing group and a UV chromophore are prepared and quantitative binding data are obtained as adsorption isotherms. Briefly, Rehydragel HPA aluminum hydroxide was suspended (113 μg/mL) in buffer, and varying concentrations of each of compounds E, F, G, and H are added. The suspensions are allowed to equilibrate, and the concentration of each compound in solution at equilibrium is measured. The amount of compound adsorbed (weight/weight) is plotted against the concentration in solution to generate the adsorption isotherm. Adsorption capacity and adsorptive coefficient are calculated for each compound by double reciprocal analysis; the results are summarized in the following table.
Compound B is coupled to egg white lysozyme. […] After centrifugation, the protein concentration in the supernatant is measured by a standard micro bicinchoninic acid protein assay procedure. […]
Adsorption of Compound H (Egg white Lysozyme/Compound B conjugate) by Aluminum Hydroxide. […] The supernatant was analyzed in triplicate for compound H concentration by the micro bicinchoninic acid (BCA) assay. The amount of compound H adsorbed was determined by subtracting the amount remaining in the supernatant from the amount initially present. […]

[2] = reported, Hem et al., Vaccine 1995; cited from earlier work
Mice = experiment: Anti-lysozyme antibody response in mice, conjugated vs unconjugated lysozyme; type: in vivo; conditions: 10 μg dose, FIG. 2
Description: Compound B-Lysozyme-P2 is prepared in a similar manner using a greater excess of conjugating agent compound B. To determine the magnitude of immunogenic enhancement for the linker-modified protein, a dose response is evaluated comparing a range of doses of compound B-Lysozyme-P2 and AH, to a range of doses of unmodified hen egg lysozyme and AH, according to the following table:
Mice are injected on day 0 and day 21. Blood is collected on day 21 and on day 35. Serum anti-lysozyme IgG and anti-lysozyme IgG subclasses are measured by ELISA assay.
Dose response comparison of conjugated and unconjugated lysozyme immunological response. […] preparations are investigated: (A), lysozyme alone (10 μg dose); (B), lysozyme (10 μg dose)+AH; (C), lysozyme-P2 (2 conjugate load, 10 μg dose)+AH; (D) lysozyme (1 μg dose)+AH; (E), lysozyme-P2 (1 μg dose)+AH.

## lysozyme: egg white lysozyme (16 kDa MW), unmodified
[1]
  Affinity for aluminum hydroxide (in words): poor electrostatic binding with aluminum hydroxide
[2]
  Complexation by aluminum hydroxide (in words): negligibly complexed
Mice
  anti-lysozyme antibody production: does not show a significant induction of antibody response
